The text below walks through data of the nanobody polyreactivity screen of Harvey et al. (2022).

The nature of this series: yeast display, Sf9 membrane polyspecificity reagent, FACS + sequencing; frameworks hold sequencing errors. The gist of the method:
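Galactose-induced (36–48 hours) yeast carrying a synthetic nanobody display library were exposed to 10% biotinylated, detergent-solubilized Sf9 membrane reagent at 4 °C for 1 hour. FACS followed streptavidin microbead enrichment, using low and high (top ~1%) gates for expression (anti-HA) and reagent binding (streptavidin). Colony PCR, MiSeq 2 × 250 sequencing and CDR-length filtering followed. Labels for polyreactivity reflect the gate of origin.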
Take “QVHLVESGGGLVQAGGSLRLSCAASGSIFRYYAMGCYRQAPGKERELVAGITWSSGSTYYADYVKGRFTISRDKAKNTVYFQMNSLKPEDTAVSYCIADPANPFVTEFEYWGQGNQVTVSS”: the “polyreactivity (PSR sort gate)” value is given as “high polyreactivity”.
The entry for “QVQLVESGGGLVQAGGSLRLSCAASGFTLDDNGMGWYRPAPGKECELVESITWSGGSTDYADSVKGRFTISRDTAKNTVYLQMNSLKPEDTAVYSCNVGDPIGGFLSYWGGDYWGQGTQVTVSS” is “low polyreactivity”; for “QVQLVESGGGLVQAGGSLRLSCAASGFTVGYYAMAWYRQAPGKERELVAAISYVGGTTYYADSVKGRFTISRDNAKKTVYLQMNSLKPEDTAVYYCATLYRGSVRYYYWGQGTQVTVSS” it is “high polyreactivity”.
For the sequence “QVQLVESGGGLVQAGGSLRLSCAASGNIIWGNAIGWYRQAPGKERELVAAISRRSGSTYYADSVKGRFTISRDIAKNTVYLQMNSLKPEDTAVYYCNTAGRVGTYDYWGQGTQVTVSS”, the “polyreactivity (PSR sort gate)” value is “high polyreactivity”.
To “QVQLVESGVCLVQAGGSLRLSCAASGRIFYNYAMGWYRQAPGKERELVADISSSGTLTYYSDSVKGRFTISRDNAKNTVYLHMNSLKPEDTAVYYCAARYWFRFQYDYWGQGTQLTVSS” belongs “high polyreactivity”.
To “QVQLVESGGGLVQAGGSLRLSCAASGSTFSIYAMGWYRQAPGKEREFVAAISSSSGSTYYADSVKGRFTISRDNAMNTVYLQMNSLKPEDTAVYYCIRRYRRGGVKGVYYWGQGTQVTVSS” belongs “high polyreactivity”; to “QVQLVETGGGLVQAGGSLRLSCAASGITFASYDMGWYRQAPGKEWELVAAISSGGDTTYADSVKGRFTLSRDNAKNTVSLQMNSLKPEDTAVYYCNKDIDFAVSAYESSPRTMYYWGQGTQVTVSS”, “low polyreactivity”.
The entry for “QVQLVESGGGLVQAGGSLRLSCAASGFTFTKNAMGWYRQAPGKEREMVAAITWRGGSTYYADSVKGRFTISRDNAKNTVYLQMNSLKPEDTAVYYCAADGGSLYDWGQGTQVTVSS” is “low polyreactivity”.
For the sequence “QVQLVESGGGLVQAGGSLRLSCAASGSTFLRNAMGWYREAPGKERELVAAISTRGGSTYYADSVKGRFTISRDNAKNTVNLQMNSLKPEDTADYYCAAVATRRYDYWGQGTQVTVSS”, the “polyreactivity (PSR sort gate)” value is given as “high polyreactivity”.
For “QVQLVESGGGLVQAGGSLRLSCAASGIIFSDYGMGWDRQAPGKERELVAAINSGGRTYSADSVKGRFTISRDNAKNTVYLQMNSLKPEDTAVYYCAADTQGSRYDYWGQGTQVTVSS”, the “polyreactivity (PSR sort gate)” value was “high polyreactivity”.
“QVQLVESGGGLVQAGGSLRLSCAASGSTFLRYAMGWYRQAPGKERELVAAITASGGSTYYADSVKGRFTISRDNAKNTVYLEMNSLKPEDTAVYYCAADGRYIGKNSHDLWIYGYYYWGQGTQVTVSS”: the “polyreactivity (PSR sort gate)” value is “low polyreactivity”.
On to “QVQLVESGGGLVQAGGSLRLSCAASGSIFERYAMGWYRPAPGKERELVAGISSDGSTYADSVKGRFTISRDNAKNTVFLQMNSLKPEDTAVYYCAAAAWDPKGSRYDYWGQGTQVTVSS”, for which the “polyreactivity (PSR sort gate)” value is on record as “low polyreactivity”.
The entry for “QVQLVESGGGLVQAGGSLRLSCAASGSTLGANAMGWYRQAPGKERELVAAISISDGDTYYADSVKGRFTISRDYAKNTVYLQMNSLKPEDTAVYYCAADYWFQYRWYDYWGQGTQVTVSS” is “high polyreactivity”; for “QVQLVESGGGLVQAGGSLRLSCAASGSTFGSNAMGWYRQAPGKERELVATITRRSGSTYYADSVKGRFTISRDNAKNTVYLQMNSLKPEDTAVYYCARVGFWLQYDYWGQGTQVTVSS” it is “high polyreactivity”; for “QVHLVESGGGLVQAGGSLRLICAASGFTFDFYAMGWYRQAPGKERELVAAISKNDGTTYYADSVKGRFTISRDNAKNTVYLQMYSLKPEDTAVYYCAAESGYPVYTYVSSGDYWGQGTQVTVSS” it is “low polyreactivity”.
The entry for “QVQLVESGGGLVQAGGSLRLSCAASGSTFWKYAMGWYRQAPGKERELVASIRSGGSTYYADSVKGRFTISRDNAKNTVYLQMNSLKPEDTAVYYCAAKSISVGGGVYGYRYYYWGQGTQVTVSS” is “high polyreactivity”; for “QVQLVESGGGLVQAGGSLRLSCAASGSIFLDYAMGWYRQAPGKERELVAGITISGGSTYYAVSVKGRFTISRDNAKNTVYLQMYSLNREDTAVYYCAKVAPRSSSSQEYYYWGQGTQVTVSS” it is “low polyreactivity”; for “QVQLVESGGGLVQAGGSLRLSCAASGRIFRFNAMGWYRQAPGKERELVAAITGSGGTTFYADSVKGRFTISRDNAKNTVYLQMNSLKPEDTAVYYCARQRTVKKYYYWGQGTQVTVSS” it is “high polyreactivity”.
To “QVQLVESGGGLVQAGGSLRLSFAASGNTFVSNAMGWYRQAPGKERELVAAISGRGGRTYYADSVKGRFTISRDIAKDTVYLQMNSLKPEDTAVYYCDADQYKDFDYWGQGTLVTVSS” belongs “low polyreactivity”; to “QFQLEESGGGLVQAGGSLRLSCAASGITFRRYTMGWYRQAPGKERELVATISLSDGNTYYADSVKGRFTISRDNAKNTVYYQMNSLKPEDTAVYYCNARHTWHQTYDYWGQGTQVTVSS”, “low polyreactivity”; to “QVQLVESGGGLVQAGGSLRLSCAASGFTFVRNVMGWYRQAPGKERELVAAINTGGTTDYADSVKGRFTISRDNAKNTVYLQMNSLKPEDTAVYNCNADYDSQYHYLLRYDYWGQGSQVTVSS”, “low polyreactivity”.
For “QVQLVESGGGLVQAGGSLRLSCAASGYTFYANAMGWYRQAPGTEREFVASITWSGGSTYYADSVKGRFTISRDNAKNTVYLQMNSLKPEDTAVYYCAAESWFKYDYWGQGTQVTVSS”, the “polyreactivity (PSR sort gate)” value is “low polyreactivity”.
To “QVQLVESGGGLVQAGGSLRLSCAASGGTFRVYAMGWYRQAPGKERELVAAITGRGGSTYYADSVKGRFTISRDNAKNTVYLQMNSLKPEDTAVYYCAAQAYWDFGSVARRDSWGQGTQVTVSS” belongs “low polyreactivity”; to “QVQLVESGGGLVQAGGSLRLSCAASGRIFRSNAMGWYRQAPGKERELLAAISGSGSTTNYADSVKGRITISRDNAKNTVYLQMNSLKPEDTAVYYCATGKRGVSGRGFRYDYWGLGTQVTVSS”, “high polyreactivity”; to “QVQLVESGGGLVQAGGSLRLSCAASGSTFGGYGMGWYRQAPGQERELVASISGGGNTNYADSVKGRFTISRDNAKNTVYLQKNSLKPEDTAVYYCNARINSWYSTYRYYYWGQGTQVTVSS”, “low polyreactivity”.
“QVQLVESGGGLVQAGGSLRLSCAASGLIFPYYVKVWYRQAPGKERELVAAISWNGSSTYYADSVKGRFTISRDNAKNTVYLQMNSLKPEDTAVYYCAASYGYFEDYGYWGQGTQVTVSS”: the “polyreactivity (PSR sort gate)” value is on record as “low polyreactivity”.
On to “QVQHVESGGGLVQAGRSLPLSCAASGSIFWDNALGWYRQATGKEMVLVAAITSCGDTTYYADSVKGRFTISRDNSKNTVYLQMNSLKPEDTAVYYCATDSNWYWGFNYWGQGTQVTVSS”, for which the “polyreactivity (PSR sort gate)” value is recorded as “low polyreactivity”.
The entry for “QVQLVESGGGLVNAGGSLRLSCAASGITFWGYAMGWYRQAPGKERELVAAITSGGTTYYADSVKGRFTISRDNAKNTVYLQMNSLKPEDTAVYYCNARYPSADDWGQGTQVTVSS” is “high polyreactivity”.
For the sequence “QVQLVESGGCLVQAGGSLRLSCAASGSTFPIYAMGWYRQAPGKERELVARITWNGGRTYYADSVKGRFTISRDNAKNTVYLQMNSLKPEDTAVYYCAAGKIGSYHYDYWGQGTQVTVSS”, the “polyreactivity (PSR sort gate)” value is recorded as “high polyreactivity”.
As to “QVQLVESGGGLVQAGGSLRLSCAASGRTFYGYAMGWYRQAPGKERELVASISRDASTNYADSVKGRFTISRDNAKNTVYLQMNSLKPEDTAVYYCAADIWYYRYPIYYYSYDYWGLGTQVTVSS”, the “polyreactivity (PSR sort gate)” value was “low polyreactivity”.
For “QVQLVESGGGLVQAGGSLRLSCAASGIIFTRNAMGWYRPAPGKERELVAASSRSGGSTYYADSVKGRFTISRDNAKNTVYLQMNSLKPEDTAVYDGAAAWSEYPYDYWGQGTQVTVSS”, the “polyreactivity (PSR sort gate)” value is reported as “low polyreactivity”.
The entry for “QVQLVESGGGLVQAGGSLRLSCAASGSIFVGYVMGWYRQAPGKERELVAAISRSGGRTYYADSVKGRFTISRDNAKNTVYLQMNSLKPEDTAVYYCAADSYTQPYGSLPHKQRYEYWGQGTQVTVSS” is “low polyreactivity”; for “QVQLVESGGGLVQAGGSLRLSCAASGSTFPSYAMGWYRQAPGKERELVAAINSGGGTNYADSVKGRFTISRDNAKNTVYLQMNSLKPEDTAVYYCAKSRYDYNKTEGGYWGQGTQVTVSS” it is “low polyreactivity”; for “QVQLVESGGGLVQAGGSLRLSCAASGSTFKWYAMGWYRQAPGKERELVAAINWSSGRTYYADSVKGRFTISRDNAKNTVYLQMNSLKPEDTAVYYCAAEAGYFSWRTMDYWGQGTQVTVSS” it is “high polyreactivity”.
To “QDQLVESGGGLVQAGGSLRLSCRASGFTFTHYAMGWSRKAPGKERELVAAIDRSGDSTYYADSVKGRFTISRDNAKNTVYLQMNSLKPEDTAVYYSAADLFDSLIWVYWTYVARFDYWGQGTQVTVSS” belongs “low polyreactivity”; to “QVQLVESVGGLVQAGGSLRLSCAASGLTFYVYAMGRYRQAPGKERELVAAITQNGGTTYYADSVKGRFTISRDNAKNTVYLQMNSLKPEDTAVYNCAARRLYAGHQYDYWGQGTQVTVSS”, “high polyreactivity”; to “QVQLVESGGGLVQAGGSLRLSCAASGSIFGYYTMGWYRQAPGKERELVAAITSGGSTNYADSVKGRFTISRDNAKNTVYLQMNSLKPEDTSVYYCAKVSYYPWRYDYWGQGTQVTVSS”, “low polyreactivity”.
To “QVQLVESGGCLVQEGGSLRLSCAASGSIFHDYIMGWYRQAPGKEMELVAAMSSGGSTYYADSVKGRFTISRDNAKNTVYLQMNSLKPEDTEVYYCAAKSRSQVYPHYYWGQGTQVTVSS” belongs “low polyreactivity”.
As to “QVQLVESGGGLVQAGGSLRLSCAASGRIFVGYAMGWYRQAPGKEREFVAAITIGGTDTYYADSVKGRFTISRDNAKNTVYLQMNSLKPEDTAVYYCNADLLYPYDFDYWGQGTQVTVSS”, the “polyreactivity (PSR sort gate)” value is on record as “low polyreactivity”.
The entry for “QVQLVESGGGLVQAGGSLRLSWAAAGFIFYYNAMGRYRQAPGKERELVAAIDESGGSTYYADSVKGRFTISRDNATNTVYLQLNSLKPEDSAVYYCDTDDTWSISYGWYWFTYEYWGQGTQVTVSS” is “low polyreactivity”; for “QVQLVESGGGLVQAGGSLRLSCAASGRIFIFTYALGWYRQAPGKERELVAAITSSGGSTYYADSVKGRFTISRDNAKNTVYLQMNSLKPEDTAVYYCIAYSYYIVHFIRYEYWGQGTQVTVSS” it is “high polyreactivity”.
